# Changes are numbered by the printed parent chain.
# T1: extracellular domain (ECD) of human αKlotho, amino acids E34-S981 with C-terminal 6-His tag (R&D Systems … (human, UniProt Q9UEF7 34-981))
# T1 construct: range 34-981; also called αKlotho (aa34-981); target antigen
# T1 sequence: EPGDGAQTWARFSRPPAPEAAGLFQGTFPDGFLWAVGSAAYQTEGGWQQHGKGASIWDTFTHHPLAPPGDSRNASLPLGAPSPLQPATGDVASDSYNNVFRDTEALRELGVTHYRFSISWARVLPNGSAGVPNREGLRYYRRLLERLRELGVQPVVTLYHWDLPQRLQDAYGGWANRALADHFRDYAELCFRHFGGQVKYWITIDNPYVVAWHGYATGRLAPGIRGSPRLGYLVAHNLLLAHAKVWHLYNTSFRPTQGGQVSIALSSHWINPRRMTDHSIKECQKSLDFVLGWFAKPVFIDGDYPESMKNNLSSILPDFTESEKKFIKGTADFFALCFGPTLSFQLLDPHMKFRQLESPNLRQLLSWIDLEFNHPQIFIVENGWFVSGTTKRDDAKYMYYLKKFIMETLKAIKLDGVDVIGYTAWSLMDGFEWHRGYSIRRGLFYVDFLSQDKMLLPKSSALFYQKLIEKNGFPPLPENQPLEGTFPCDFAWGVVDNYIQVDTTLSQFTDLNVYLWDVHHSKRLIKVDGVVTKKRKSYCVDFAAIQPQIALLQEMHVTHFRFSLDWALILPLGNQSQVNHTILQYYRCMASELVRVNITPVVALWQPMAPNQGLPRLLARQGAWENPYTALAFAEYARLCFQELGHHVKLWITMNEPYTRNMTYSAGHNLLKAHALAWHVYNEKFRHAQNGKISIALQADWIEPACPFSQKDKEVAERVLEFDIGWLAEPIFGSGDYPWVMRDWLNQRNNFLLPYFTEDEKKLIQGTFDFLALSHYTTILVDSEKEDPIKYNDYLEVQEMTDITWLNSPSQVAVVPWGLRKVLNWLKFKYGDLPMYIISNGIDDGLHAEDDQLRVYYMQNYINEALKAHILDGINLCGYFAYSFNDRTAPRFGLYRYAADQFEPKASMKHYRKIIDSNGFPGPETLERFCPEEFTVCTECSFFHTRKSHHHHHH
# B1: anti-αKlotho Fab clone 4812 (Fab, V domains shown)
# VH: EVQLVESGGGLVQPGGSLRLSCAASGFNLSSYSMHWVRQAPGKGLEWVASISSYSGYTSYADSVKGRFTISADTSKNTAYLQMNSLRAEDTAVYYCARSYSWWWSVSYAMDYWGQGTLVTVSS
# VL: DIQMTQSPSSLSASVGDRVTITCRASQSVSSAVAWYQQKPGKAPKLLIYSASSLYSGVPSRFSGSRSGTDFTLTISSLQPEDFATYYCQQGYWLFTFGQGTKVEIK
# notes: Fab (also as Fab-phage); FLAG tag on light chain; also called sb181
# B2: anti-αKlotho Fab clone 4818 (Fab, V domains shown)
# VH: EVQLVESGGGLVQPGGSLRLSCAASGFNISYSSIHWVRQAPGKGLEWVASISPYSGYTYYADSVKGRFTISADTSKNTAYLQMNSLRAEDTAVYYCARSGHSVYWWWSHFGMDYWGQGTLVTVSS
# VL: DIQMTQSPSSLSASVGDRVTITCRASQSVSSAVAWYQQKPGKAPKLLIYSASSLYSGVPSRFSGSRSGTDFTLTISSLQPEDFATYYCQQPYSPITFGQGTKVEIKR
# notes: Fab (also as Fab-phage); FLAG tag on light chain; also called sb187
# B3: anti-αKlotho Fab clone 4809 (Fab, V domains shown)
# VH: EVQLVESGGGLVQPGGSLRLSCAASGFNIYSYYIHWVRQAPGKGLEWVASIYSYYGSTSYADSVKGRFTISADTSKNTAYLQMNSLRAEDTAVYYCARSGPWAWYGLDYWGQGTLVTVSS
# VL: DIQMTQSPSSLSASVGDRVTITCRASQSVSSAVAWYQQKPGKAPKLLIYSASSLYSGVPSRFSGSRSGTDFTLTISSLQPEDFATYYCQQSGWAYHPITFGQGTKVEIKR
# notes: Fab (also as Fab-phage); FLAG tag on light chain; also called sb178
# B4: anti-αKlotho Fab clone 4813 (Fab, V domains shown)
# VH: EVQLVESGGGLVQPGGSLRLSCAASGFNLYSSSIHWVRQAPGKGLEWVASISPYSGYTYYADSVKGRFTISADTSKNTAYLQMNSLRAEDTAVYYCARYYSGWYSPAWWYGIDYWGQGTLVTVSS
# VL: B3 VL with S91A, G92A, A94G, Y95G, H96A
# notes: Fab (also as Fab-phage); FLAG tag on light chain; also called sb182
# B5: anti-αKlotho Fab clone 4826 (Fab, V domains shown)
# VH: EVQLVESGGGLVQPGGSLRLSCAASGFNISSYYMHWVRQAPGKGLEWVASISSSYGYTYYADSVKGRFTISADTSKNTAYLQMNSLRAEDTAVYYCARGYPASSYYYPSSALDYWGQGTLVTVSS
# VL: B3 VL with S91A, W93F, A94F, Y95S, H96Y
# notes: Fab (also as Fab-phage); FLAG tag on light chain; also called sb195
# B6: anti-αKlotho Fab clone 4820 (Fab, V domains shown)
# VH: EVQLVESGGGLVQPGGSLRLSCAASGFNISSYYMHWVRQAPGKGLEWVASIYSSYSSTYYADSVKGRFTISADTSKNTAYLQMNSLRAEDTAVYYCARGAWAMDYWGQGTLVTVSS
# VL: B3 VL with G92P, A94G, Y95A, H96Y, P97L
# notes: Fab (also as Fab-phage); FLAG tag on light chain; also called sb189
# B7: anti-αKlotho Fab clone 4816 (Fab, V domains shown)
# VH: EVQLVESGGGLVQPGGSLRLSCAASGFNFSSSSIHWVRQAPGKGLEWVASISSSYGYTYYADSVKGRFTISADTSKNTAYLQMNSLRAEDTAVYYCARGWYAAYSVYWFGGHASYGLDYWGQGTLVTVSS
# VL: DIQMTQSPSSLSASVGDRVTITCRASQSVSSAVAWYQQKPGKAPKLLIYSASSLYSGVPSRFSGSRSGTDFTLTISSLQPEDFATYYCQQSSYSLITFGQGTKVEIKR
# notes: Fab (also as Fab-phage); FLAG tag on light chain; also called sb185
# B8: anti-αKlotho Fab clone 4821 (Fab, V domains shown)
# VH: EVQLVESGGGLVQPGGSLRLSCAASGFNLYYSYMHWVRQAPGKGLEWVASISPYSGSTYYADSVKGRFTISADTSKNTAYLQMNSLRAEDTAVYYCARSGFSSWWWVVSYAFDYWGQGTLVTVSS
# VL: B7 VL
# notes: Fab (also as Fab-phage); FLAG tag on light chain; also called sb190
# B9: anti-αKlotho Fab clone 4817 (Fab, V domains shown)
# VH: EVQLVESGGGLVQPGGSLRLSCAASGFNFSSSSIHWVRQAPGKGLEWVASISSSYGYTYYADSVKGRFTISADTSKNTAYLQMNSLRAEDTAVYYCARGYPSSGAAWFWFSHPGSAMDYWGQGTLVTVSS
# VL: B7 VL
# notes: Fab (also as Fab-phage); FLAG tag on light chain; also called sb186
# B10: anti-αKlotho Fab clone 4823 (Fab, V domains shown)
# VH: EVQLVESGGGLVQPGGSLRLSCAASGFNFSSSSIHWVRQAPGKGLEWVAYIYSSYGYTYYADSVKGRFTISADTSKNTAYLQMNSLRAEDTAVYYCARAAHYGYYVHSGLDYWGQGTLVTVSS
# VL: B7 VL
# notes: Fab (also as Fab-phage); FLAG tag on light chain; also called sb192
# B11: anti-αKlotho Fab clone 4828 (Fab, V domains shown)
# VH: EVQLVESGGGLVQPGGSLRLSCAASGFNFSSSSIHWVRQAPGKGLEWVASISSSYGYTYYADSVKGRFTISADTSKNTAYLQMNSLRAEDTAVYYCARYVVGGWWYHYGMDYWGQGTLVTVSS
# VL: B7 VL
# notes: Fab (also as Fab-phage); FLAG tag on light chain; also called sb197
# B12: anti-αKlotho Fab clone 4815 (Fab, V domains shown)
# VH: EVQLVESGGGLVQPGGSLRLSCAASGFNFSSSSIHWVRQAPGKGLEWVASISSSYGYTYYADSVKGRFTISADTSKNTAYLQMNSLRAEDTAVYYCARGFSSSAHWYWSWYGPGGGFDYWGQGTLVTVSS
# VL: B7 VL
# notes: Fab (also as Fab-phage); FLAG tag on light chain; also called sb184
# B13: anti-αKlotho Fab clone 4806 (Fab, V domains shown)
# VH: EVQLVESGGGLVQPGGSLRLSCAASGFNISSSSIHWVRQAPGKGLEWVAYISSSYSSTSYADSVKGRFTISADTSKNTAYLQMNSLRAEDTAVYYCARSSGGGYYHWWVVPYAMDYWGQGTLVTVSS
# VL: B7 VL
# notes: Fab (also as Fab-phage); FLAG tag on light chain; also called sb175
# B14: anti-αKlotho Fab clone 4810 (Fab, V domains shown)
# VH: EVQLVESGGGLVQPGGSLRLSCAASGFNLSSSSIHWVRQAPGKGLEWVAYISPSYGSTSYADSVKGRFTISADTSKNTAYLQMNSLRAEDTAVYYCARSGYYSGAYWHWWVVPYAMDYWGQGTLVTVSS
# VL: B7 VL
# notes: Fab (also as Fab-phage); FLAG tag on light chain; also called sb179
# B15: anti-αKlotho Fab clone 4827 (Fab, V domains shown)
# VH: EVQLVESGGGLVQPGGSLRLSCAASGFNFSSSSIHWVRQAPGKGLEWVAYISSSSGSTSYADSVKGRFTISADTSKNTAYLQMNSLRAEDTAVYYCARAYHSYFYGSYWSYGWAGALDYWGQGTLVTVSS
# VL: B7 VL
# notes: Fab (also as Fab-phage); FLAG tag on light chain; also called sb196
# B16: anti-αKlotho Fab clone 4834 (Fab, V domains shown)
# VH: EVQLVESGGGLVQPGGSLRLSCAASGFNFSSSSIHWVRQAPGKGLEWVASISSSYGYTYYADSVKGRFTISADTSKNTAYLQMNSLRAEDTAVYYCARAVSFYYWAWYGPGFAMDYWGQGTLVTVSS
# VL: B7 VL
# notes: Fab (also as Fab-phage); FLAG tag on light chain; also called sb203
# Target: T1, extracellular domain (ECD) of human …
# Assay: SPR, Fab captured by anti-H+L antibody, αKlotho injected
# Protocol: (§1) Affinity estimates for each of the antibodies were determined by surface plasmon resonance (SPR). Fabs were immobilized using an anti-H+L antibody and serial dilutions of αKlotho were injected.
row,Binder,Kd [nM]
1,B1,0.885
2,B2,2.1
3,B3,0.845
4,B4,5.2
5,B5,3.3
6,B6,2.7
7,B7,3.7
8,B8,5.1
9,B9,4.1
10,B10,1.6
11,B11,4.9

# Target: T2, bovine serum albumin (bovine, UniProt P02769 25-607)
# T2 construct: also called BSA
# T2 sequence (P02769 25-607 limits assumed): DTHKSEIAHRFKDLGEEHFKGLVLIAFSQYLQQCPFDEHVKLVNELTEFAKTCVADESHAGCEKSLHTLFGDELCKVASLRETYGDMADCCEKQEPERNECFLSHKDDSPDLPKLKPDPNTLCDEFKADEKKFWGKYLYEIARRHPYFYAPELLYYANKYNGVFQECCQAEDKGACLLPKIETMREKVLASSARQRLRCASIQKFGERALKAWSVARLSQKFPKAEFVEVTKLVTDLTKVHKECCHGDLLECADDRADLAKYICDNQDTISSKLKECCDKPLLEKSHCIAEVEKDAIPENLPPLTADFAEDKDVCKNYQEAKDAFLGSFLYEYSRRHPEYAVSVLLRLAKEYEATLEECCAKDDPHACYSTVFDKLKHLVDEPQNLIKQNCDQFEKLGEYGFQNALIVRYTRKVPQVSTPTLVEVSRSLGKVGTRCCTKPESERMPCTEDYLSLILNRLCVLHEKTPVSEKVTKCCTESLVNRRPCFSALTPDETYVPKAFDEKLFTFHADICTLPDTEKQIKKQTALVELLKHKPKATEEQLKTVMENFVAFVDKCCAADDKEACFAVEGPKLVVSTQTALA
# Assay: Fab ELISA, purified Fab 5 ug/ml on immobilised BSA, anti-Flag-HRP, A450
# Protocol: FIG. 10 is a graph showing absorbance values of Fab ELISAs with additional αKlotho antibodies. Purified Fabs [5 ug/ml] were incubated with immobilized αKlotho (1 ug/ml) or bovine serum albumin (BSA), as a negative control. After washing off unbound Fab, bound Fab were detected using an HRP-conjugated anti-Flag anti-body (Fabs have Flag-tag on the light chain). Colorimetric HRP reagents allow for absorbance readings at 450 nm.
row,Binder,binding result
1,B3,no binding (tested: 5 ug/ml)
2,B6,no binding (tested: 5 ug/ml)
3,B12,no binding (tested: 5 ug/ml)
4,B13,no binding (tested: 5 ug/ml)
5,B14,no binding (tested: 5 ug/ml)
6,B10,no binding (tested: 5 ug/ml)
7,B15,no binding (tested: 5 ug/ml)
8,B11,no binding (tested: 5 ug/ml)
9,B16,no binding (tested: 5 ug/ml)

# Target: T1, extracellular domain (ECD) of human …
# Assay: SPR, Fab captured by anti-H+L IgG, αKlotho injected at 50 to 6.25 ug/ml, Langmuir fit [continued]
# Protocol: as §1
Binder,Kd [nM],koff [s⁻¹],kon [M⁻¹ s⁻¹]
B1,0.387,0.000191,493000
B2,1.05,0.000539,512000
B3,0.46,0.000258,560000
B4,2.8,0.00164,588000
B5,2.03,0.00218,1.07e+06
B6,1.48,0.00116,780000
B7,2.06,0.00183,888000
B8,2.85,0.00277,973000
B9,1.93,0.00269,1.39e+06
B10,0.991,0.000744,750000
B11,2.48,0.000782,315000

# Source: patent US20190041402A1 (GOVERNING COUNCIL OF THE UNIVERSITY OF TORONTO, published 2019)
